Experimental data: PMC12931730 (2025)

Tests used:
[1] = target: T1, lysin motif (LysM) peptidoglycan-binding domain-containing protein (LPDP), recombinant (Staphylococcus lentus, UniProt A0A8I0UA09); experiment: MST; in the presence of tubuloside B
[2] = target: T1, lysin motif (LysM) …; experiment: MST

B1: PDZ and LIM domain 3 (PDLIM3) (natural protein)
chain: MPQNVVLPGPAPWGFRLSGGIDFNQPLVITRITPGSKAAAANLCPGDVILAIDGFGTESMTHADAQDRIKAASYQLCLKIDRAETRLWSPQVSEDGKAHPFKINLEAEPQEFKPIGTAHNRRAQPFVAAANIDDKRQVVSASYNSPIGLYSTSNIQDALHGQLRGLIPGSLQNEPTASVPPQSDVYRMLHDNRDDPAAPRQSGSFRVLQDLVNDGPDDRPAGTRSVRAPVTKVHGGAGSAQRMPLCDKCGSGIVGAVVKARDKYRHPECFVCADCNLNLKQKGYFFVEGELYCETHARARTRPPEGYDTVTLYPKA
modifications: fluorescently labeled with the Monolith His-Tag Labeling Kit (in the microscale thermophoresis only)
Kd [1]: 4550 nM
Kd [2]: 930 nM
